These results are taken from paper PMC11980593.

The assay concerns the target hexahistidine-tagged VapD toxin from Campylobacter jejuni (VapD^Cje) (Campylobacter jejuni). The assay is described as follows: crystal structure; co-expressed and co-purified VapD-VapW complex; sitting drop at 20°C, 20% PEG 1000, 100 mM sodium phosphate dibasic/citric acid pH 4.2, 200 mM lithium sulfate; space group C 2 2 21; 1.95 Å.

As to “strep-tagged VapW antitoxin from Campylobacter jejuni (VapW^Cje) (natural protein)”, the stoichiometry N (VapD per VapW (2:2)) was 1.
